In paper PMC9822835 (Computational and Structural Biotechnology Journal, 2022):

Target: Tumor necrosis factor alpha (TNF-α) (Homo sapiens, UniProt P01375)
Assay: SPR

Chain of Tumor necrosis factor alpha (TNF-α) (P01375 whole entry): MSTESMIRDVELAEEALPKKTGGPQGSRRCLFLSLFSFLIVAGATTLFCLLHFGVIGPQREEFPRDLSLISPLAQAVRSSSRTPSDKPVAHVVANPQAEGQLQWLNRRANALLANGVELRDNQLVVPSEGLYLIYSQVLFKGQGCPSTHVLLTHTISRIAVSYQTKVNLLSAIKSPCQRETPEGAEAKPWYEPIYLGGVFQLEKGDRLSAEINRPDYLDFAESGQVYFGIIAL

B1: VHH2^E50V&T53W (VHH)
VHH: QVQLVESGGGLVQPGGSLRLSCAASGFTFSNYWMYWVRQAPGKGLEWVSVINWNGLITKYPDSVKGRFTISRDNAKNTLYLQMNSLKPEDTALYYCARSPSGFNRGQGTQVTVSS
**Q.** For B1, which Kd is on record?
**A.** 4.6 nM
